The test addresses T1, CD4抗原 (表面抗原分化簇4, Cluster of Differentiation 4) (UniProt P01730 26-458, limits assumed).
T1 construct: whole, on cells; also called 细胞表面的CD4抗原; Nalm6-CD4
The test is described as follows: flow cytometry on Nalm6-CD4 cells; antibody from 4 μg/mL in 4-fold dilutions, 10 concentrations; APC goat anti-mouse IgG secondary. (Flow cytometry measures light scatter and fluorescence of single cells or particles in a stream.)

B1: 分离的抗体(标记为CD4-14) (antibody, V domains shown)
VH: QVQLVQSGPELKKPGASVKVSCKASGYTFTDYVIHWVKQATGQGLEWIGEIYPGSGSAYSNAKFKDRVTMTADKSSNTAYMELSSLTSDDTAVYFCARRGNGTGFAYWGQGTLVTVSS
VL: DIVLTQSPASLAVSLGQRATITCKAGQSVDYDGDSYMNWYQQKPGQPPKLLIYVASNLESGIPARFSGSGSGTDFTLNIHPVEENDAATYYCQQSYKDPLTFGQGTKLEIK
notes: also called 分离抗体; 本发明的分离抗体
A word on the EC50: it is the concentration that produces a half-maximal response. Take B1: the EC50 was 0.152 µg/mL.

The values above are taken from patent publication CN116063506A (HUADAO SHANGHAI BIOMEDICAL CO LTD, dated 2023).
